Measurements published in PMC9659335, “An unexpected role for leucyl aminopeptidase in UV tolerance revealed by a genome-wide fitness assessment in a model cyanobacterium” (Proceedings of the National Academy of Sciences of the …, 2022).

How the values were obtained:
purified protein [1] = substrate: CC(C)C[C@H](N)C(=O)Nc1ccc([N+](=O)[O-])cc1; assay: purified protein; format: biochemical, Synechococcus elongatus; settings: pH 7.5, 50 mM Tris-HCl, 0.2 mM MnCl2, 37 °C, 5 µg/mL enzyme
purified protein [2] = substrate: N[C@@H](CS)C(=O)NCC(=O)O; assay: purified protein; format: biochemical, Synechococcus elongatus; settings: pH 7.5, 50 mM Tris-HCl, 0.2 mM MnCl2, 37 °C, 5 µg/mL enzyme

B1: SynPCC7942_1190 (LAP, leucyl aminopeptidase) (Synechococcus elongatus PCC 7942 = FACHB-805) (protein)
chain: MTFQAIATHPQDWTGDTLALGLTTAAIGETLSSELQKLDQQWNGVLQELISDSEFKAKLAETTTTRIGGSIRKLILVGLGESPTTEDYRRAAAAVAKQARSFKSQTLAIAFPPSDDPAAIASAIVEGISLALYKDQRFKSEPDTASGPSSIELLGLAGQEAAIARAEQVVAGVELARQLVAAPANVVTPVTMADTAQELAAELGLELEILEADECEKRGMGAFLGVAKASDLPPKFIHLTYRPESTPRRKLAIVGKGLTFDSGGYNIKGAGSGIEMMKTDMGGAAATLGAAKAIGLIKPDVEVHFISAVTENMISGRGMHPGDILTASNGKTIEVNNTDAEGRLTLADALVFADGLGVDAIVDLATLTGACIIALGDDIAGLWSPSDDLAEQLLQAGKAAGEKLWRLPLEEPYLDGLKSPVADYKNTGPRAGGSITAALFLKQFVKHPVWAHLDVAGPVWSDKEKHYNPAGATGYGVRTLVNWVLS
notes: full-length gene in pET-28b(+) (pAM5836), Strep-tag (text: N terminus)
- Km (purified protein [1]): 7.44 mM
- Km (purified protein [2]): 1.21 mM
